These are literature values, as cited in US12383526B2, “Optimized sigma-1 agonist method of responder selection and treatment” (ANAVEX LIFE SCIENCES CORP., priority 2018, dated 2025).

The conditions of this series: after 72 weeks; CTAD 2018; cited from earlier work.

B1: BAN2401: comparison from other studies: data presented at CTAD 2018 for BAN2401 after 72 weeks (antibody, chains of the INN, looked up, V domains shown)
VH: EVQLVESGGGLVQPGGSLRLSCSASGFTFSSFGMHWVRQAPGKGLEWVAYISSGSSTIYYGDTVKGRFTISRDNAKNSLFLQMSSLRAEDTAVYYCAREGGYYYGRSYYTMDYWGQGTTVTVSS
VL: DVVMTQSPLSLPVTPGAPASISCRSSQSIVHSNGNTYLEWYLQKPGQSPKLLIYKVSNRFSGVPDRFSGSGSGTDFTLRISRVEAEDVGIYYCFQGSHVPPTFGPGTKLEIK
Turning to B1, the “adjusted mean change from baseline in ADAS-Cog” value is 47% and the “adjusted mean change in ADCOMS” value is 30%.
